We go through nine molecules from paper PMC5045167, “STN1 OB Fold Mutation Alters DNA Binding and Affects Selective Aspects of CST Function”.

The target of data set [1] is T1, CST(WT) (CTC1-STN1-TEN1) (human, UniProt Q2NKJ3;Q9H668;Q86WV5 1-1217;1-368;1-123). The experiment in a line: EMSA; 25 mM Tris pH 8.0, 1 mM DTT, 150 mM NaCl; EMSA 0.1 nM DNA, 30 min RT; filter binding 0.01 nM DNA, 18 h 4 C; crosslinking 20 nM CST, 2 nM DNA, UVA on ice. The settings on record: protein: recombinant; tags: N-terminal FLAG-CTC1, His-STN1; TEN1 untagged (Methods says all tags N-terminal); copies: 1;1;1; label: 32P. A general note: In EMSA bound probe runs differently from free probe, usually more slowly.
T1 sequence (Q2NKJ3 whole entry, chain 1 of 3): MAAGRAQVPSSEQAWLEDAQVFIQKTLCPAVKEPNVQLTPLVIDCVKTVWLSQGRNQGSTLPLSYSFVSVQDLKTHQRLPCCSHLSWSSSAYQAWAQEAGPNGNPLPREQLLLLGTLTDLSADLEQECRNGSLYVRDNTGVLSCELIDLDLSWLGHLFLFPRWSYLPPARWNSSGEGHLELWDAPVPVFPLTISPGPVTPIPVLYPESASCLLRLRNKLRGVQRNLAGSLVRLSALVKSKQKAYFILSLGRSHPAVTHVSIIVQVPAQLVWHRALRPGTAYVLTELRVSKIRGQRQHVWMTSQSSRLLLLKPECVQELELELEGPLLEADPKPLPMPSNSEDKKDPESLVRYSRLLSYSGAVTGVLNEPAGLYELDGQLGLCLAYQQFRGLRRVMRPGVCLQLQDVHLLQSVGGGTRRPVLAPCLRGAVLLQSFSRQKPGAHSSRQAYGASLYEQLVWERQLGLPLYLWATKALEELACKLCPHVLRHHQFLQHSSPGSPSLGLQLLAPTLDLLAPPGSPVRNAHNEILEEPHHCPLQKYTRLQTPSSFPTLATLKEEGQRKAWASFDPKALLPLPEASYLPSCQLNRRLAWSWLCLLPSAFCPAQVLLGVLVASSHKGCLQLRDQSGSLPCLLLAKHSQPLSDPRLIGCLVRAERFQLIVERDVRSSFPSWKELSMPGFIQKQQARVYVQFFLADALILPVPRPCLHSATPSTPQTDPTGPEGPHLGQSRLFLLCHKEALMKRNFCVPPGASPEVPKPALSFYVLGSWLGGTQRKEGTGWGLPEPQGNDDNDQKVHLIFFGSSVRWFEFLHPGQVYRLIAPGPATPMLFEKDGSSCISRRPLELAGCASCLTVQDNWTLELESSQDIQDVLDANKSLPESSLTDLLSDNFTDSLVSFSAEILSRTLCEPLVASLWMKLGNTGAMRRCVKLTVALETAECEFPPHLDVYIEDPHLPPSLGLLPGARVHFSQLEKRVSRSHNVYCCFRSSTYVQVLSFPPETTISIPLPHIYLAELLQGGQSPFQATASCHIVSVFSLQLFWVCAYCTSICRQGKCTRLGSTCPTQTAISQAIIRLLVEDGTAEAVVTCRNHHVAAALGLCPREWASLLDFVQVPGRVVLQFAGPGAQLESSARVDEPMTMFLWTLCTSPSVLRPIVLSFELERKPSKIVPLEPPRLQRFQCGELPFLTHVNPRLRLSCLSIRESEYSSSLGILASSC
T1 sequence (Q9H668 whole entry, chain 2 of 3): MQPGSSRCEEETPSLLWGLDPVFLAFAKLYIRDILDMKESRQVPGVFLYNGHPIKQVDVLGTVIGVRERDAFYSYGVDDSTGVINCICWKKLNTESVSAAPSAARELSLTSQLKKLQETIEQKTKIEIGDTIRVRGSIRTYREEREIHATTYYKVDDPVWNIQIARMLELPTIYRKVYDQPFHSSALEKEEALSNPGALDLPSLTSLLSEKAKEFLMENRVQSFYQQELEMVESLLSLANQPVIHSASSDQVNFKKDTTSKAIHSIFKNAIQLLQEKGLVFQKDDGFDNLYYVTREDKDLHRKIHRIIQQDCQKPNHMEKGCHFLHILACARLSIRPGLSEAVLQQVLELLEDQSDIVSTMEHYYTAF
T1 sequence (Q86WV5 whole entry, chain 3 of 3): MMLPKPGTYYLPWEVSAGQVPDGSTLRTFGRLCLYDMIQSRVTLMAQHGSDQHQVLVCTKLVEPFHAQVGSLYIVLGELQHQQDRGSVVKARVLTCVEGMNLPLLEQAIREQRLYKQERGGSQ

Data set [2] has as its target T2, CST(STN1-OBM) (human, UniProt Q2NKJ3;Q9H668;Q86WV5 1-1217;1-368;1-123, W89A;R139L;Y141A). The experiment in a line: EMSA; similar affinity to CST(WT); 25 mM Tris pH 8.0, 1 mM DTT, 150 mM NaCl; EMSA 0.1 nM DNA, 30 min RT; filter binding 0.01 nM DNA, 18 h 4 C; crosslinking 20 nM CST, 2 nM DNA, UVA on ice. The settings on record: protein: recombinant; tags: N-terminal FLAG-CTC1, His-STN1-OBM; TEN1 untagged; copies: 1;1;1; label: 32P.

Data set [3] has as its target T1, CST(WT) (CTC1-STN1-TEN1). The experiment in a line: UV crosslinking; CTC1, STN1 and TEN1 crosslinked; 25 mM Tris pH 8.0, 1 mM DTT, 150 mM NaCl; EMSA 0.1 nM DNA, 30 min RT; filter binding 0.01 nM DNA, 18 h 4 C; crosslinking 20 nM CST, 2 nM DNA, UVA on ice. The settings on record: protein: recombinant; tags: N-terminal FLAG-CTC1, His-STN1; TEN1 untagged (Methods says all tags N-terminal); copies: 1;1;1; label: 32P.

The target in data set [4] is T1, CST(WT) (CTC1-STN1-TEN1). The experiment in a line: UV crosslinking; only CTC1 reproducibly crosslinked; 25 mM Tris pH 8.0, 1 mM DTT, 150 mM NaCl; EMSA 0.1 nM DNA, 30 min RT; filter binding 0.01 nM DNA, 18 h 4 C; crosslinking 20 nM CST, 2 nM DNA, UVA on ice. The settings on record: protein: recombinant; tags: N-terminal FLAG-CTC1, His-STN1; TEN1 untagged (Methods says all tags N-terminal); copies: 1;1;1; label: 32P.

In data set [5] the target is T1, CST(WT) (CTC1-STN1-TEN1). The experiment in a line: filter binding; Kd,app measured, value only in Fig 6C; 25 mM Tris pH 8.0, 1 mM DTT, 150 mM NaCl; EMSA 0.1 nM DNA, 30 min RT; filter binding 0.01 nM DNA, 18 h 4 C; crosslinking 20 nM CST, 2 nM DNA, UVA on ice. The settings on record: protein: recombinant; tags: N-terminal FLAG-CTC1, His-STN1; TEN1 untagged (Methods says all tags N-terminal); copies: 1;1;1; label: 32P.

Data set [6] deals with T1, CST(WT) (CTC1-STN1-TEN1). The experiment in a line: UV crosslinking; CTC1 and STN1 crosslinked; 25 mM Tris pH 8.0, 1 mM DTT, 150 mM NaCl; EMSA 0.1 nM DNA, 30 min RT; filter binding 0.01 nM DNA, 18 h 4 C; crosslinking 20 nM CST, 2 nM DNA, UVA on ice. Conditions: protein: recombinant; tags: N-terminal FLAG-CTC1, His-STN1; TEN1 untagged (Methods says all tags N-terminal); copies: 1;1;1; label: 32P.

For data set [7], the target named is T2, CST(STN1-OBM). The experiment in a line: EMSA; up to 20 nM CST; 25 mM Tris pH 8.0, 1 mM DTT, 150 mM NaCl; EMSA 0.1 nM DNA, 30 min RT; filter binding 0.01 nM DNA, 18 h 4 C; crosslinking 20 nM CST, 2 nM DNA, UVA on ice. Conditions: protein: recombinant; tags: N-terminal FLAG-CTC1, His-STN1-OBM; TEN1 untagged; copies: 1;1;1; label: 32P.
Data set [8] has as its target T1, CST(WT) (CTC1-STN1-TEN1). The data set is described as above. The settings on record: protein: recombinant; tags: N-terminal FLAG-CTC1, His-STN1; TEN1 untagged (Methods says all tags N-terminal); copies: 1;1;1; label: 32P.
The target in data set [9] is T1, CST(WT) (CTC1-STN1-TEN1). The experiment in a line: UV crosslinking; CTC1 and (less efficiently) STN1 crosslinked; 25 mM Tris pH 8.0, 1 mM DTT, 150 mM NaCl; EMSA 0.1 nM DNA, 30 min RT; filter binding 0.01 nM DNA, 18 h 4 C; crosslinking 20 nM CST, 2 nM DNA, UVA on ice. Conditions: protein: recombinant; tags: N-terminal FLAG-CTC1, His-STN1; TEN1 untagged (Methods says all tags N-terminal); copies: 1;1;1; label: 32P.

T2 sequence (Q2NKJ3 whole entry, chain 1 of 3): as the sequence (Q2NKJ3 whole entry, chain 1 of 3) above
T2 sequence (Q9H668 whole entry W89A/R139L/Y141A, chain 2 of 3): as the sequence (Q9H668 whole entry, chain 2 of 3) above, with W89A, R139L, Y141A counted along it
T2 sequence (Q86WV5 whole entry, chain 3 of 3): as the sequence (Q86WV5 whole entry, chain 3 of 3) above

B1: NonTel-48 (ssDNA)
DNA: AGCGTATCCGTTCAGTTGAGCGTATCCGTTCAGTTGAGCGTATCCGTT
On to B1, for which the binding result in [1] and in [2] was “binds” each time.

B2: TelG-48 (ssDNA)
DNA: GGTTAGGGTTAGGGTTAGGGTTAGGGTTAGGGTTAGGGTTAGGGTTAG
For the molecule B2, the binding result in data set [1] and in data set [2] was “binds” in each case.

B3: 3'-s4T TelG-48 (ssDNA)
DNA: B2 DNA
modifications: 4-thiothymidine at position 46 (third nt from 3' end)
For B3, the binding result in data set [3] is recorded as “binds”.

B4: 5'-s4T TelG-48 (ssDNA)
DNA: B2 DNA
modifications: 4-thiothymidine at position 3 (third nt from 5' end)
Turning to B4, the binding result in data set [4] was “binds”.

B5: NonTel-36 (ssDNA)
DNA: AGCGTATCCGTTCAGTTGAGCGTATCCGTTCAGTTG
Consider B5, for which, in data set [1], the binding result is on record as “binds”.

B6: TelG-18 (ssDNA)
DNA: GGTTAGGGTTAGGGTTAG
For the molecule B6, in data set [5], the binding result is “binds”.

B7: 3'-s4T TelG-18 (ssDNA)
DNA: GGTTAGGGTTAGGGTTAG
modifications: 4-thiothymidine at position 16 (third nt from 3' end)
As to B7, the binding result in data set [6] was “binds”.

B8: NonTel-18 (ssDNA)
DNA: AGCGTATCCGTTCAGTTG
In the case of B8, the binding result in data set [7] and in data set [8] was “no binding” in each case.

B9: 5'-s4T TelG-18 (ssDNA)
DNA: GGTTAGGGTTAGGGTTAG
modifications: 4-thiothymidine at position 3 (third nt from 5' end)
As for B9, the binding result in [9] is “binds”.
